From patent CN1869207A (INST OF BIOPHYSICS CAS, dated 2006)
Several values for one entry are separate records, joined by “and”; a condition that tells them apart may be missing. Equal values may be shown once.

T1: 大肠杆菌表达的GST-MIF重组蛋白 (human, UniProt P14174 1-115)
T1 construct: Coating antigen (10 ug/ml) of the ELISA that gave all the dissociation constants; GST is placed N-terminal by the name GST-MIF; also called 人MIF; not shown: GST tag and vector-encoded residues from pET-41a
T1 sequence (looked up): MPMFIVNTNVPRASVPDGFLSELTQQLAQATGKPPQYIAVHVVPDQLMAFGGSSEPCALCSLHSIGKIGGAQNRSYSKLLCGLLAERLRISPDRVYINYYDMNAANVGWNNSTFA


Key:
大肠杆菌表达的GST-MIF重组蛋白 [1] = molecular target: T1, 大肠杆菌表达的GST-MIF重组蛋白; assay: ELISA by the method of Example 1 (coated GST-MIF; concentration at 50% of the maximal reading)
大肠杆菌表达的GST-MIF重组蛋白 [2] = molecular target: T1, 大肠杆菌表达的GST-MIF重组蛋白; assay: ELISA on coated GST-MIF (10 ug/ml); antibody concentration at 50% of the maximal reading is taken as the dissociation constant

Kd (大肠杆菌表达的GST-MIF重组蛋白 [1]) [nM]	Kd (大肠杆菌表达的GST-MIF重组蛋白 [2])	Binder
30		抗MIF单链抗体10C3scFV (scFv, Heavy and light variable regions joined by a 15-residue Gly/Ser-rich linker; Expressed from pET-26b in BL21 with a 6xHis tag) scFv: QVQLEESGGALVKPGGSLKLSCAASGFTFSTYAMSWVRQTPEKRLEWVATISSGGDYTHYPDSVKGRFTISRDNARNTLYLQMSSLRSEDTAMFYCARPYYGSSYWFYDVWGAGTTVTVSSGSSGSGSSGSGSSGSDIVLTQTPVSIIASRGEKVTITCRARSSISSTYLHWYQQKPGSSPKLLIYRTSILASGVLDSFSGSGSETSDTLTISCMQDEVAATYYCQQGSSSPLTFGAGTKLELKR
	3 nM and 0.48 µg/mL	杂交瘤细胞株10C3 CGMCC No.1717分泌的单克隆抗体 (antibody, mouse IgG2b, V domains shown, the mouse constant regions are not; Hybridoma supernatant was used in the ELISA and ascites-purified antibody in the cell assays; also called 10C3Ab; anti-MIF) VH: QVQLEESGGALVKPGGSLKLSCAASGFTFSTYAMSWVRQTPEKRLEWVATISSGGDYTHYPDSVKGRFTISRDNARNTLYLQMSSLRSEDTAMFYCARPYYGSSYWFYDVWGAGTTVTVSS VL: DIVLTQTPVSIIASRGEKVTITCRARSSISSTYLHWYQQKPGSSPKLLIYRTSILASGVLDSFSGSGSETSDTLTISCMQDEVAATYYCQQGSSSPLTFGAGTKLELKR
3		人-鼠嵌合抗体ch-10C3 (antibody, V domains shown) VH: QVQLEESGGALVKPGGSLKLSCAASGFTFSTYAMSWVRQTPEKRLEWVATISSGGDYTHYPDSVKGRFTISRDNARNTLYLQMSSLRSEDTAMFYCARPYYGSSYWFYDVWGAGTTVTVSS VL: DIVLTQTPVSIIASRGEKVTITCRARSSISSTYLHWYQQKPGSSPKLLIYRTSILASGVLDSFSGSGSETSDTLTISCMQDEVAATYYCQQGSSSPLTFGAGTKLELKR
10		抗MIF的Fab片段10C3Fab (Fab, V domains shown) VH: QVQLEESGGALVKPGGSLKLSCAASGFTFSTYAMSWVRQTPEKRLEWVATISSGGDYTHYPDSVKGRFTISRDNARNTLYLQMSSLRSEDTAMFYCARPYYGSSYWFYDVWGAGTTVTVSS VL: DIVLTQTPVSIIASRGEKVTITCRARSSISSTYLHWYQQKPGSSPKLLIYRTSILASGVLDSFSGSGSETSDTLTISCMQDEVAATYYCQQGSSSPLTFGAGTKLELKR
